According to patent publication CN117843801A (BEILAI PHARMACEUTICAL CO LTD, dated 2024):

What was measured:
[1] = biological target: IL-17RA and IL-17RC co-expressed on 293F-IL-17RA-IL-17Rc-ACT1-NFκB-Luc cells (UniProt Q96F46); assay: FACS, IL-17A on 293 cells overexpressing IL-17RA and IL-17RC
[2] = biological target: T1, Human IL-17A重组蛋白 (IL-17A-His) (human, UniProt Q16552 24-155, biotin label in the ELISA of Example 2 (Biotin-IL-17A-His); site not stated); assay: ELISA, antibody coated at 2 ug/mL, Biotin-IL-17A-His titrated from 10 ug/mL (5-fold, 7 points), HRP-streptavidin
T1 construct: also called IL-17A抗原蛋白; Biotin-IL-17A-His
T1 sequence (Q16552 other isoform, or with tags, fused parts or gaps limits assumed): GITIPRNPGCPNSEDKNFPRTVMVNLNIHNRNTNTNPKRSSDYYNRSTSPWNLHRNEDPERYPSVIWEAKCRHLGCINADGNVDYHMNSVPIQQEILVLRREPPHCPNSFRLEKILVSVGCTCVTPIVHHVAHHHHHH

[3] = biological target: T1, Human IL-17A重组蛋白 (IL-17A-His); assay: cell-based or functional assay

Molecule: Human IL-17A重组蛋白 (IL-17A-His) (from UniProt Q16552 24-155) (ligand)
- 阳性率 [1]: > 90%

B1: Ixekizumab (antibody, human IgG4 S228P, kappa, V domains shown)
VH: QVQLVQSGAEVKKPGSSVKVSCKASGYSFTDYHIHWVRQAPGQGLEWMGVINPMYGTTDYNQRFKGRVTITADESTSTAYMELSSLRSEDTAVYYCARYDYFTGTGVYWGQGTLVTVSS
VL: DIVMTQTPLSLSVTPGQPASISCRSSRSLVHSRGNTYLHWYLQKPGQSPQLLIYKVSNRFIGVPDRFSGSGSGTDFTLKISRVEAEDVGVYYCSQSTHLPFTFGQGTKLEIKR
notes: Made in house from the variable regions cloned into pcDNA3.4-hIgG4 and pcDNA3.4-hIgKc vectors; positive control; also called 阳性对照抗体Ixekizumab; 对照抗体Ixekizumab
- EC50 [2]: 10.1 µg/mL
- IC50, 阻断活性 (reporter cells) [3]: 1.36 µg/mL

B2: 串联纳米抗体C11-1-F2 (Fc fusion)
chain: DVQLVESGGGLVQPGGSLRLSCAASESLLRLYAMGWYRQLPGQEREWVAIHTTSDTTNYRDSVKGRFTLSRDVATNTIYLQMTSLKPEDTAVYYCHVTSMRDSQNYWGQGTQVTVSSGGGGSGGGGSGGGGSQVQLVESGGGLVQPGGSMRLSCAASTIGLSIYSGAWYRQAAGKQRELVARITRRGVTNYADSVKGRFTISKDNAKNTVSLEMNSLKPEDTAVYYCNVGGEDGYWGQGTQVTVSS
- EC50 [2]: 0.745 µg/mL
- IC50, 阻断活性 (reporter cells) [3]: 1.16 µg/mL

B3: 单域抗体(2)(1-F2) (Fc fusion)
chain: QVQLVESGGGLVQPGGSMRLSCAASTIGLSIYSGAWYRQAAGKQRELVARITRRGVTNYADSVKGRFTISKDNAKNTVSLEMNSLKPEDTAVYYCNVGGEDGYWGQGTQVTVSS
- EC50 [2]: 4.04 µg/mL
- IC50, 阻断活性 (reporter cells) [3]: 14.2 µg/mL

B4: 单域抗体(1)(1-C11) (Fc fusion)
chain: DVQLVESGGGLVQPGGSLRLSCAASESLLRLYAMGWYRQLPGQEREWVAIHTTSDTTNYRDSVKGRFTLSRDVATNTIYLQMTSLKPEDTAVYYCHVTSMRDSQNYWGQGTQVTVSS
- EC50 [2]: 30 µg/mL
- IC50, 阻断活性 (reporter cells) [3]: 18.8 µg/mL
